From patent US20170211067, “ANTAGONISTIC CTLA-4 APTAMERS AND APPLICATIONS THEREOF IN ENHANCING IMMUNE ACTIVITY” (Academia Sinica, published 2017)

How the values were obtained:
[1] = biological target: CTLA-4 (Mus musculus, UniProt P09793 P09793:36-161); experiment: CA21 stated to cross-react with mouse CTLA-4, assay not described; details: label: AlexaFluor 647 (flow cytometry)
[2] = biological target: T1, CTLA-4 (UniProt P16410 P16410:36-161); experiment: CTLA-4 stably expressing 293 cells, 2-fold dilutions from 250 nM; no binding to non-transfected 293T by flow at 10 nM; details: tags: expressed on CTLA-4-transfected 293T / stably expressing 293 cells; label: AlexaFluor 647 (flow cytometry); possible G-quadruplex; Mfold secondary structure dG -10.6
Description: (§1) Panels A and B are FACS analysis diagrams showing the binding activities of selected aptamers to CTLA-4 expressed on wild-type 293T cells. […] The cells of panel A and panel B were incubated with 10 nM of AlexaFluor 647 labeled CA7, CA21, CA32 and CA82 aptamer as indicated. After washing away the unbounded aptamer, the fluorescent signals were measured by flow cytometry and the results of wild-type 293T cells are shown in panel A. The results for CTLA-4 expressing wild-type 293T cells are shown in panel B. Panels C, D, E and F show the CTLA-4 binding affinity of the aptamers CA7, CA21, CA32 and CA82, respectively. The four aptamers were selected and characterized for their binding affinity against CTLA-4 expressing cells. These aptamers were first synthesized and followed by 2-fold serial dilution which started from 250 nM. Six dosage points were analyzed after incubation of the selected pool with CTLA-4 stably expressed 293 cells.
(§2) Four aptamers (CA7, CA21, CA32 and CA82) isolated by the method described in Example 1 were selected by their higher structural stability. The binding specificity of these four aptamers were analyzed by flow cytometry. All four of these apatmers specifically recognized CTLA-4-expressing cells, except a relatively low non-specific binding signal in CA7 against wild type 293 cells (FIG. 2, panels A and B). […]

[3] = biological target: T1, CTLA-4; experiment: CTLA-4 stably expressing 293 cells; no binding to non-transfected 293T by flow at 10 nM; details: tags: expressed on CTLA-4-transfected 293T / stably expressing 293 cells; label: AlexaFluor 647 (flow cytometry)
Description: as §1, §2

T1 sequence (P16410 36-161, one chain of several): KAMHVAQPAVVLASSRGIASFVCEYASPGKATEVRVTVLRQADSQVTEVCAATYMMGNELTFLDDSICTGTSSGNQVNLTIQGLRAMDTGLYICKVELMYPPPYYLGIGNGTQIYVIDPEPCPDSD
Sequence of CTLA-4 (Mus musculus, UniProt P09793 P09793:36-161) (P09793 36-161, one chain of several): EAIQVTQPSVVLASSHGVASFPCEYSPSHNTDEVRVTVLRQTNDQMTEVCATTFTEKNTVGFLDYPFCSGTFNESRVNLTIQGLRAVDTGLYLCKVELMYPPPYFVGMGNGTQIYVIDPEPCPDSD

B1: CA21 (ssDNA)
DNA: TCCCTACGGCGCTAACGATGGTGAAAATGGGCCTAGGGTGGACGGTGCCACCGTGCTACAAC
[1]
  binding result: binds
[2]
  Kd: 11.8 nM

B2: CA32 (ssDNA)
DNA: TCCCTACGGCGCTAACGTCCACACTCAGAAAACAGAATAGGGGGTAGCCACCGTGCTACAAC
[3]
  Kd: 61.8 nM

B3: CA82 (ssDNA)
DNA: TCCCTACGGCGCTAACCGATCGAAAATGTCCAGGGAGTTGTCTGTAGCCACCGTGCTACAAC
[3]
  Kd: 36.5 nM
